From the RNAGym collection of RNA variant scans (doi:10.1093/molbev/msab373)

B1: Azoarcus group I ribozyme (parent)
chain: GUGCCUUGCGCCGGGAAACCACGCAAGGGAUGGUGUCAAAUUCGGCGAAACCUAAGCGCCCGCCCGGGCGUAUGGCAACGCCGAGCCAAGCUUCGGCGCCUGCGCCGAUGAAGGUGUAGAGACUAGACGGCACCCACCUAAGGCAAACGCUAUGGUGAAGGCAUAGUCCAGGGAGUGGCGAAAGUCACACAAACCGG

Variants of: B1
Experiment: reverse-splicing fitness (ratio to wild type); higher = more active; in vitro selection; Mg2+ level not given
Procedure, shortened: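 An in vitro group I ribozyme library with randomized positions was T7-transcribed and gel-purified. In triplicate, 10 pmol RNA in EPPS pH 7.5 was reacted with 50 pmoles of a 30-nt RNA substrate for 1 h at 37 °C across several added MgCl2 levels (1–48 mM), then stopped with EDTA. Products were reverse transcribed from a substrate-complementary primer, PCR-amplified and sequenced (HiSeq 4000). Fitness is a variant's read proportion after selection over that before, normalised to wild type.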

Row | Variant | reverse-splicing fitness
1 | GUGCCUUGCGCCGGGAAACCACGCAAGGGAUGGUGUCAAAUUCGGCGAAACCUAAGCGCCCGCCCGGGCGUAUGGCAACGCGGAGCCAAGCUUCGGCGCCUGCGCCGAUGGAGGUGUAGCGACUAGACGGCACCCACCUAAGGCUAACGUUAUGGUGAAGGCAUAGUCAAGGGAGCGGCGAAAGUCACACAAACCGG [C82G A111G A120C A145U C150U C169A U176C] | 0.0137
2 | GUGCCUUGCGCCGGGAAACCACGCAAGGGAUGGUGUCAAAUUCGGCGAAACCUAAGCGCCCGCCCGGGCGUAUGGCAACGCGGAGCCAAGCUUCGGCGCCUGCGCCGAUGGAGGUGUAGCGACUAGACGGCACCCACCUAAGGCUAACGUUAUGGUGAAGGCAUAGUCAAGGGAGGGGCGAAAGUCACACAAACCGG [C82G A111G A120C A145U C150U C169A U176G] | 0.00592
3 | GUGCCUUGCGCCGGGAAACCACGCAAGGGAUGGUGUCAAAUUCGGCGAAACCUAAGCGCCCGCCCGGGCGUAUGGCAACGCGGAGCCAAGCUUCGGCGCCUGCGCCGAUGGAGGUGUAGCGACUAGACGGCACCCACCUAAGGCUAACGUUAUGGUGAAGGCAUAGUCAAGGGAGAGGCGAAAGUCACACAAACCGG [C82G A111G A120C A145U C150U C169A U176A] | 0.0171
4 | GUGCCUUGCGCCGGGAAACCACGCAAGGGAUGGUGUCAAAUUCGGCGAAACCUAAGCGCCCGCCCGGGCGUAUGGCAACGCGGAGCCAAGCUUCGGCGCCUGCGCCGAUGGAGGUGUAGCGACUAGACGGCACCCACCUAAGGCUAACGGUAUGGUGAAGGCAUAGUCUAGGGAGUGGCGAAAGUCACACAAACCGG [C82G A111G A120C A145U C150G C169U] | 0.00899
5 | GUGCCUUGCGCCGGGAAACCACGCAAGGGAUGGUGUCAAAUUCGGCGAAACCUAAGCGCCCGCCCGGGCGUAUGGCAACGCGGAGCCAAGCUUCGGCGCCUGCGCCGAUGGAGGUGUAGCGACUAGACGGCACCCACCUAAGGCUAACGGUAUGGUGAAGGCAUAGUCGAGGGAGUGGCGAAAGUCACACAAACCGG [C82G A111G A120C A145U C150G C169G] | 0.00697
6 | GUGCCUUGCGCCGGGAAACCACGCAAGGGAUGGUGUCAAAUUCGGCGAAACCUAAGCGCCCGCCCGGGCGUAUGGCAACGCGGAGCCAAGCUUCGGCGCCUGCGCCGAUGGAGGUGUAGCGACUAGACGGCACCCACCUAAGGCUAACGGUAUGGUGAAGGCAUAGUCAAGGGAGUGGCGAAAGUCACACAAACCGG [C82G A111G A120C A145U C150G C169A] | 0.00918
7 | GUGCCUUGCGCCGGGAAACCACGCAAGGGAUGGUGUCAAAUUCGGCGAAACCUAAGCGCCCGCCCGGGCGUAUGGCAACGCGGAGCCAAGCUUCGGCGCCUGCGCCGAUGGAGGUGUAGCGACUAGACGGCACCCACCUAAGGCUAACGAUAUGGUGAAGGCAUAGUCUAGGGAGGGGCGAAAGUCACACAAACCGG [C82G A111G A120C A145U C150A C169U U176G] | 0.00626
8 | GUGCCUUGCGCCGGGAAACCACGCAAGGGAUGGUGUCAAAUUCGGCGAAACCUAAGCGCCCGCCCGGGCGUAUGGCAACGCGGAGCCAAGCUUCGGCGCCUGCGCCGAUGGAGGUGUAGCGACUAGACGGCACCCACCUAAGGCUAACGAUAUGGUGAAGGCAUAGUCUAGGGAGCGGCGAAAGUCACACAAACCGG [C82G A111G A120C A145U C150A C169U U176C] | 0.0136
9 | GUGCCUUGCGCCGGGAAACCACGCAAGGGAUGGUGUCAAAUUCGGCGAAACCUAAGCGCCCGCCCGGGCGUAUGGCAACGCGGAGCCAAGCUUCGGCGCCUGCGCCGAUGGAGGUGUAGCGACUAGACGGCACCCACCUAAGGCUAACGGUAUGGUGAAGGCAUAGUCCAGGGAGGGGCGAAAGUCACACAAACCGG [C82G A111G A120C A145U C150G U176G] | 0.00435
10 | GUGCCUUGCGCCGGGAAACCACGCAAGGGAUGGUGUCAAAUUCGGCGAAACCUAAGCGCCCGCCCGGGCGUAUGGCAACGCGGAGCCAAGCUUCGGCGCCUGCGCCGAUGGAGGUGUAGCGACUAGACGGCACCCACCUAAGGCUAACGGUAUGGUGAAGGCAUAGUCCAGGGAGCGGCGAAAGUCACACAAACCGG [C82G A111G A120C A145U C150G U176C] | 0.0121
11 | GUGCCUUGCGCCGGGAAACCACGCAAGGGAUGGUGUCAAAUUCGGCGAAACCUAAGCGCCCGCCCGGGCGUAUGGCAACGCGGAGCCAAGCUUCGGCGCCUGCGCCGAUGGAGGUGUAGCGACUAGACGGCACCCACCUAAGGCUAACGGUAUGGUGAAGGCAUAGUCCAGGGAGAGGCGAAAGUCACACAAACCGG [C82G A111G A120C A145U C150G U176A] | 0.00634
12 | GUGCCUUGCGCCGGGAAACCACGCAAGGGAUGGUGUCAAAUUCGGCGAAACCUAAGCGCCCGCCCGGGCGUAUGGCAACGCGGAGCCAAGCUUCGGCGCCUGCGCCGAUGGAGGUGUAGCGACUAGACGGCACCCACCUAAGGCUAACGUUAUGGUGAAGGCAUAGUCAAGGGAGUGGCGAAAGUCACACAAACCGG [C82G A111G A120C A145U C150U C169A] | 0.01
13 | GUGCCUUGCGCCGGGAAACCACGCAAGGGAUGGUGUCAAAUUCGGCGAAACCUAAGCGCCCGCCCGGGCGUAUGGCAACGCGGAGCCAAGCUUCGGCGCCUGCGCCGAUGGAGGUGUAGCGACUAGACGGCACCCACCUAAGGCUAACGUUAUGGUGAAGGCAUAGUCGAGGGAGUGGCGAAAGUCACACAAACCGG [C82G A111G A120C A145U C150U C169G] | 0.0094
14 | GUGCCUUGCGCCGGGAAACCACGCAAGGGAUGGUGUCAAAUUCGGCGAAACCUAAGCGCCCGCCCGGGCGUAUGGCAACGCGGAGCCAAGCUUCGGCGCCUGCGCCGAUGGAGGUGUAGCGACUAGACGGCACCCACCUAAGGCUAACGAUAUGGUGAAGGCAUAGUCCAGGGAGCGGCGAAAGUCACACAAACCGG [C82G A111G A120C A145U C150A U176C] | 0.0167
15 | GUGCCUUGCGCCGGGAAACCACGCAAGGGAUGGUGUCAAAUUCGGCGAAACCUAAGCGCCCGCCCGGGCGUAUGGCAACGCGGAGCCAAGCUUCGGCGCCUGCGCCGAUGGAGGUGUAGCGACUAGACGGCACCCACCUAAGGCUAACGAUAUGGUGAAGGCAUAGUCCAGGGAGAGGCGAAAGUCACACAAACCGG [C82G A111G A120C A145U C150A U176A] | 0.0132
